# Paper doi:10.1101/2025.07.22.666160, “Alphaherpesvirus pUL21 homologues use non-canonical motifs to compete with cellular adaptors for protein phosphatase 1 binding” (bioRxiv, 2025)
# Primed or numbered codes have the meaning given here. Where no end group is shown, it is not given here. FITC′ = fluorescein isothiocyanate; Ahx = NCCCCCC(=O)O
# B1: GADD34 RVxF+ϕϕ[xF] peptide (residues 552–568), FITC-labelled (peptide)
# peptide: {FITC′-Ahx}-KARKVRFSEKVTVHFLA
# notes: GADD34 (PP1 regulatory subunit 15A, PPP1R15A), residues 552-568 with the RVxF and ϕϕ[xF] motifs; also called GADD34 peptide; fluorescent GADD34 peptide; source: synthetic peptide (GenScript, >95% purity)
# B2: pORF38-NLT-H6 (residues 1–263) (domain or fragment)
# chain: MEFPYHSTVSYNGVTFYFNERATRAYFICGGCLISIPRKHGGEIAKFGHVVRGVGPGDRSVASYVRSELNRTGKTWAVSSNNNCVFLDRVALLAAGSGAVDRDLCGTFDVEVEDPTLADYLVSLPVTHLTLVAGVDVTRENKLKLFPTPTAINTTNGFMYVPNEASFSLVYMRMLELPESLQELVSGLFDGTPEIRDALNGSNDDEKTSIIVSRRAADVVTEDVKADDVPISGEPYSEKQPRRRKKSDHITLSNFVQIRTIPR
# notes: VZV pORF38 residues 1-263: N-terminal domain plus linker region to the end of the TROPPO motif (NLT region); Sub-cloned into the vector pOPTnH; also called pOPF38-NLT; source: E. coli T7 Express lysY/Iq, purified (Ni-NTA, SEC); not shown: His6, C-terminal, kept
# B3: pUL21-RVxF-H6 (A237V+V239F) (natural protein)
# chain: MELSYATTMHYRDVVFYVTTDRNRAYFVCGGCVYSVGRPCASQPGEIAKFGLVVRGTGPDDRVVANYVRSELRQRGLQDVRPIGEDEVFLDSVCLLNPNVSSELDVINTNDVEVLDECLAEYCTSLRTSPGVLISGLRVRAQDRIIELFEHPTIVNVSSHFVYTPSPYVFALAQAHLPRLPSSLEALVSGLFDGIPAPRQPLDAHNPRTDVVITGRRAPRPIAGSGAGSGGAGAKRVTFSEFVQVKHIDRVGPAGVSPAPPPNNTDSSSLVPGAQDSAPPGPTLRELWWVFYAADRALEEPRADSGLTREEVRAVRGFREQAWKLFGSAGAPRAFIGAALGLSPLQKLAVYYYIIHRERRLSPFPALVRLVGRYTQRHGLYVPRPDDPVLADAINGLFRDALAAGTTAEQLLMFDLLPPKDVPVGSDVQADSTALLRFIESQRLAVPGGVISPEHVAYLGAFLSVLYAGRGRMSAATHTARLTGVTSLVLAVGDVDRLSAFDRGAAGAASRTRAAGYLDVLLTVRLARSQHGQSV
# notes: HSV-1 pUL21 with A237V and V239F, made from pUL21-H6 (the full-length protein) by site-directed mutagenesis; methods, results and legend say V239F; also called RVxF pUL21; A237V+V239F (RVxF) mutant; source: E. coli T7 Express lysY/Iq, purified (Ni-NTA, SEC); not shown: His6, C-terminal, kept
# Columns and labels:
# Settings in all cases: both partners purified
# [1] = biological target: T1, mouse PP1γ catalytic domain (residues 7–300)-H6 (mouse, UniProt P63087 7-300); experiment: fluorescence polarisation; fluorescence anisotropy; serial dilution of PP1γ catalytic domain with 2 nM FITC-GADD34 peptide; Tris pH 8.5 in place of HEPES pH 8
# T1 construct: Protein phosphatase 1 gamma catalytic domain, mouse, residues 7-300; also called PP1 catalytic domain; source: E. coli T7 Express lysY/Iq, purified (Ni-NTA, SEC)
# [2] = biological target: T1, mouse PP1γ catalytic domain (residues …); experiment: fluorescence polarisation; fluorescence anisotropy; serial dilution of PP1γ catalytic domain with 2 nM FITC-GADD34 peptide; 27°C; 50 mM HEPES pH 8.0, 500 mM NaCl, 0.05% TWEEN-20; one-site model
# [3] = biological target: T1, mouse PP1γ catalytic domain (residues …); experiment: ITC; 25°C; 50 mM HEPES pH 8.0, 500 mM NaCl, 0.5 mM TCEP; 12 x 3 µL injections; one-site binding model; syringe and cell contents in Table S1
# [4] = biological target: T1, mouse PP1γ catalytic domain (residues …); experiment: fluorescence polarisation; competition fluorescence anisotropy; competitor titrated into a pre-formed complex of 2 nM FITC-GADD34 peptide and 250 nM PP1γ (final); 27°C; 50 mM HEPES pH 8.0, 500 mM NaCl, 0.05% TWEEN-20
# [5] = biological target: T1, mouse PP1γ catalytic domain (residues …); experiment: fluorescence polarisation; competition fluorescence anisotropy; pUL21 titrated into a pre-formed complex of 2 nM FITC-GADD34 peptide and 250 nM PP1γ; Tris pH 8.5 in place of HEPES pH 8
# T1 sequence (P63087 7-300): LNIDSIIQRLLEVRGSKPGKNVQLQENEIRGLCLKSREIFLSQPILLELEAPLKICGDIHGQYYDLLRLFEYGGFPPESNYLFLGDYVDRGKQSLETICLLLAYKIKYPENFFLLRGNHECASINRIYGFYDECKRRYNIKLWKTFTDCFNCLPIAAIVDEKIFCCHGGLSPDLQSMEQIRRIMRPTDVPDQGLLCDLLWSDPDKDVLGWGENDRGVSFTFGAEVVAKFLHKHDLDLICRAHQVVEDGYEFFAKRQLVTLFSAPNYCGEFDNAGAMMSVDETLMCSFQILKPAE
binder,measurement,setting,value
B1,Kd,[1],55 nM
same,Kd,[2],144 nM
B2,Kd,[3],497 nM
same,stoichiometry N,[3],1
same,IC50,[4],417 nM
B3,IC50,[5],337 nM
